Measured values taken from patent publication US20240400698A1, “ANTI-CHEMOKIN LIKE RECEPTOR 1 ANTIBODIES AND THEIR THERAPEUTIC APPLICATIONS” (OSE IMMUNOTHERAPEUTICS, priority 2018, published 2024).

Legend:
[1] = test system: mice, peritonitis induced by Zymosan A; assay: Zymosan A peritonitis model (sepsis); assay type: in vivo; conditions: preventive injection, vs isotype control
Procedure: FIG. 7. […] Preventive injection of anti-CMKLR1 was performed before Zymosan A injection (1 mg per mouse in 1 mL): RvE1 (1 μg per mouse) (•), 2G1 antibody (10 μg per mouse) ( ) or isotype control antibody (x). A. PMN numbered during the first 50 hours after Zymosan A injection. B. Macrophages numbered during the first 50 hours after Zymosan A injection. C. Resolution index.
Common peritonitis is induced by intraperitoneal injection of Zymosan A® (1 mg per mouse in 1 mL). Preventive injection of anti-CMKLR1 was performed 5 minutes before Zymosan A injection: RvE1 (1 μg per mouse), 2G1 antibody (10 μg per mouse). Murine peritoneal polymorphonuclear neutrophil (PMN) and macrophages were collected at 2-4-8-16-24 and 48 h after Zymosan A injection and numbered by flow cytometry analysis to determinate the resolution index (Bannenberg et al., 2005).

Mice dendritic cells = assay: Maturation and differentiation of mice bone marrow derived dendritic cells, activation markers and viability by FACS; assay type: cell-based
Procedure: FIG. 1. Effect of the anti-CMKLR1 variants 1G1, 2G1, 3G1 and 4G1 chimeric antibodies on the DCs maturation and differentiation. Mice dendritic cells were incubated during maturation phase (24 h or 48 h) followed by a differentiation phase with excipient or RvE1 or anti-CMKLR1 antibodies variants (mutations on positions 1 and 2 of SEQ ID No. 8, corresponding to the VH-CDR3: 1G1 (LL), 2G1 (LI), 3G1 (IL) or 4G1 (II) or isotype controls (hIgG1 or mIgG)). Cells were then stained for FACS analysis with cell marker antibodies: A. CD80-PE; B. CD86-FITC; C. CD103-PerCPCy5.5; D. I/Ab-APC. Mean of Fluorescence was determined in each condition. E and F represent the viability of the cells measured by FACS using LIVE/DEAD® kit from Life Technologies in each condition after 24 or 48 hours of maturation respectively.
FIG. 17. Study of the myeloid cell activation markers after CMKLR1 pathway activation. Dendritic cells incubated in excipient, RvE1, 2G1 or isotype control (hIgG1) were then stained for FACS analysis with marker antibodies: A. CD80-PE. B. CD86-FITC. C. CD103-PerCPCy5.5. D. CD40-PeCy7. E. I/Ab-APC. Mean of Fluorescence was determined in each condition.
Bone marrow cells were harvested and cultured in RPMI medium supplemented with 10% FBS, glutamine and antibiotics and the dendritic cell differentiation was induced by GM-CSF at 20 ng/ml for 7 days. Then, immature dendritic cells (iDC) were collected and cultured for 24 hours with LPS (100 ng/ml) to induce the maturation from iDC to mDC. Treatments were added during differentiation and maturation at 2 μg/ml.
Dendritic cells were resuspended in PBS-FBS-EDTA and incubated with live and dead (LIVE/DEAD® Fixable Dead Cell Stains Yellow-Life Technologies) for 30 minutes on ice. Staining of CD11c-BV711, CD11b-APCCy7, I/Ab-APC, CD103-PerCPCy5.5, CCR7-V450, CD40-PeCy7, CD80-PE, CD86-FITC (all provided by BD Pharmingen) were performed.

B1: 2G1: chimeric anti-CMKLR1 antibody, murine variable regions (SEQ ID No: 10 and 17), human IgG1 constant regions; VH-CDR3 variant LI (antibody, V domains shown)
VH: METDTLLLWVLLLWVPGSTGDEVQLVASGGGLVQPGGSLKLSCAASGFTFSSYGMSWVRQTPDRRLELVATINRYGGSTYYPDSVKGRFTISRDNAKNTLYLQMSSLKSEDTAMYYCPRLIYYGNEGDSWGQGTTLTVSS
VL: METDTLLLWVLLLWVPGSTGDQIVLTQSPAIMSASPGEKVTMTCSASSSVSFMHWYQQKSGTSPKRWIYDTTKLTSGVPARFSGSGSGTFYSLTISSMEAEDAATYYCQQWNSKPPLTFGPGTKLELKR
modifications: human IgG1 constant regions
notes: VH-CDR3 variant LI
PMNs number ([1]; FIG. 7A): slightly less | macrophages number ([1]; FIG. 7B): slightly less | resolution index ([1]; FIG. 7C): better resolution index | level of detection of DCs expressing CD103 and IAb (Mice dendritic cells; FIG. 1, FACS, compared with C7 antibody): lower than DCs cells treated with C7 antibody | DCs activation and/or maturation towards a pro-inflammatory pathway (Mice dendritic cells; FIG. 1, mice dendritic cells, maturation 24 h or 48 h): inhibit DCs activation and/or maturation in a stronger manner than other synthetized antibodies (3G1 and 4G1) | expression of CD80, CD86, CD103, CD40 and IAb (DC activation markers) (Mice dendritic cells; FIG. 17, FACS, compared to the excipient or isotype control): strong decrease | viability of cells (Mice dendritic cells; FIGS. 1E and 1F, LIVE/DEAD kit, after 24 or 48 hours of maturation, compared with other antibodies, C7 or Resolvin E1): enhanced
